Where a chain is given by its changes, count along the chain named.
T1: human TL1A extracellular domain with N-terminal HIS and FLAG tag (human, UniProt O95150 72-251)
T1 construct: whole entry named. ~70 kDa fraction purified by gel filtration
T1 sequence: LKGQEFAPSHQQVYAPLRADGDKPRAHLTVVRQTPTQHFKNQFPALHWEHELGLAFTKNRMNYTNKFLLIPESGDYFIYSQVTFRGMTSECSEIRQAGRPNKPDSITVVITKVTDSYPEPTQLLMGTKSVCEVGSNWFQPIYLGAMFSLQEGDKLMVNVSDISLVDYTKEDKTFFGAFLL

T2: human TL1A extracellular domain with N-terminal HIS and FLAG tag (human, UniProt O95150 72-251)
T2 construct: the whole entry is named; also called TNFSF15
T2 sequence: T1 sequence

B1: 320-256 (antibody, human IgG1, name in Kabat numbering, V domains shown)
VH: QVQLVQSGAEVKKPGASVKVSCKASGYTFTSYDINWVRQAPGQGLEWMGWLNPNSGNTGYAQKFQGRVTMTADRSTSTAYMELSSLRSEDTAVYYCAREVPETAAFEYWGQGTLVTVSS
VL: QSVLTQPPSVSGAPGQRVTISCTSSSSDILAGLGVHWYQQLPGTAPKLLIEGYYNRPSGVPDRFSGSKSGTSASLTITGLLPEDEGDYYCQSYDGTLSALFGGGTKLTVLG
notes: human IgG1, lambda
B2: 320-257 (antibody, human IgG1, name in Kabat numbering, V domains shown)
VH: B1 VH
VL: B1 VL with L30W
notes: human IgG1, lambda
B3: 320-259 (antibody, human IgG1, name in Kabat numbering, V domains shown)
VH: B1 VH
VL: B1 VL with L30G, A31S
notes: human IgG1, lambda
B4: 320-260 (antibody, human IgG1, name in Kabat numbering, V domains shown)
VH: B1 VH
VL: B1 VL with L30G, A31Q
notes: human IgG1, lambda
B5: 320-261 (antibody, human IgG1, name in Kabat numbering, V domains shown)
VH: B1 VH
VL: B1 VL with L30G, A31D
notes: human IgG1, lambda
B6: 320-262 (antibody, human IgG1, name in Kabat numbering, V domains shown)
VH: B1 VH
VL: B1 VL with L30G, A31H
notes: human IgG1, lambda
B7: 320-264 (antibody, human IgG1, name in Kabat numbering, V domains shown)
VH: B1 VH
VL: B1 VL with L30G, A31L
notes: human IgG1, lambda
B8: 320-265 (antibody, human IgG1, name in Kabat numbering, V domains shown)
VH: B1 VH
VL: B1 VL with L30G, A31W
notes: human IgG1, lambda
B9: 320-266 (antibody, human IgG1, name in Kabat numbering, V domains shown)
VH: B1 VH
VL: B1 VL with L30G, A31Y
notes: human IgG1, lambda
B10: 320-268 (antibody, human IgG1, name in Kabat numbering, V domains shown)
VH: B1 VH
VL: B1 VL with L30G, G32S
notes: human IgG1, lambda
B11: 320-269 (antibody, human IgG1, name in Kabat numbering, V domains shown)
VH: B1 VH
VL: B1 VL with L30G, G32Q
notes: human IgG1, lambda
B12: 320-271 (antibody, human IgG1, name in Kabat numbering, V domains shown)
VH: B1 VH
VL: B1 VL with L30G, G32H
notes: human IgG1, lambda
B13: 320-275 (antibody, human IgG1, name in Kabat numbering, V domains shown)
VH: B1 VH
VL: B1 VL with L30G, G32Y
notes: human IgG1, lambda
B14: 320-276 (antibody, human IgG1, name in Kabat numbering, V domains shown)
VH: B1 VH
VL: B1 VL with L30G, L33A
notes: human IgG1, lambda
B15: 320-279 (antibody, human IgG1, name in Kabat numbering, V domains shown)
VH: B1 VH
VL: B1 VL with L30G, L33D
notes: human IgG1, lambda
B16: 320-281 (antibody, human IgG1, name in Kabat numbering, V domains shown)
VH: B1 VH
VL: B1 VL with L30G, L33K
notes: human IgG1, lambda
B17: 320-282 (antibody, human IgG1, name in Kabat numbering, V domains shown)
VH: B1 VH
VL: B1 VL with L30G, L33W
notes: human IgG1, lambda
B18: 320-292 (antibody, human IgG1, name in Kabat numbering, V domains shown)
VH: B1 VH
VL: B1 VL with L30G, G34Y
notes: human IgG1, lambda
B19: 320-293 (antibody, human IgG1, name in Kabat numbering, V domains shown)
VH: B1 VH
VL: B1 VL with L30G, V35A
notes: human IgG1, lambda
B20: 320-294 (antibody, human IgG1, name in Kabat numbering, V domains shown)
VH: B1 VH
VL: B1 VL with L30G, V35S
notes: human IgG1, lambda
B21: 320-295 (antibody, human IgG1, name in Kabat numbering, V domains shown)
VH: B1 VH
VL: B1 VL with L30G, V35Q
notes: human IgG1, lambda
B22: 320-296 (antibody, human IgG1, name in Kabat numbering, V domains shown)
VH: B1 VH
VL: B1 VL with L30G, V35D
notes: human IgG1, lambda
B23: 320-298 (antibody, human IgG1, name in Kabat numbering, V domains shown)
VH: B1 VH
VL: B1 VL with L30G, V35K
notes: human IgG1, lambda
B24: 320-299 (antibody, human IgG1, name in Kabat numbering, V domains shown)
VH: B1 VH
VL: B1 VL with L30G, V35L
notes: human IgG1, lambda
B25: 320-303 (antibody, human IgG1, name in Kabat numbering, V domains shown)
VH: B1 VH
VL: B1 VL with L30G, H36S
notes: human IgG1, lambda
B26: 320-304 (antibody, human IgG1, name in Kabat numbering, V domains shown)
VH: B1 VH
VL: B1 VL with L30G, H36Q
notes: human IgG1, lambda
B27: 320-305 (antibody, human IgG1, name in Kabat numbering, V domains shown)
VH: B1 VH
VL: B1 VL with L30G, H36D
notes: human IgG1, lambda
B28: 320-306 (antibody, human IgG1, name in Kabat numbering, V domains shown)
VH: B1 VH
VL: B1 VL with L30G, H36K
notes: human IgG1, lambda
B29: 320-308 (antibody, human IgG1, name in Kabat numbering, V domains shown)
VH: B1 VH
VL: B1 VL with L30G, H36W
notes: human IgG1, lambda
B30: 320-309 (antibody, human IgG1, name in Kabat numbering, V domains shown)
VH: B1 VH
VL: B1 VL with L30G, H36Y
notes: human IgG1, lambda
B31: 320-310 (antibody, human IgG1, name in Kabat numbering, V domains shown)
VH: B1 VH
VL: B1 VL with L30G, Q91A
notes: human IgG1, lambda
B32: 320-547 (antibody, human IgG1, name in Kabat numbering, V domains shown)
VH: B1 VH with N57Y
VL: B1 VL with L30G
notes: full-length human IgG1, lambda

Assays:
[1] = target: T1, human TL1A extracellular domain with …; assay: SPR run 3; supernatant on Protein A; TL1A 10 ug/mL; timepoint 59
From the text: (§1) 1.5. Antibody expression and antigen binding as determined by SPR. Using a CM5 sensor chip (GE Healthcare) Protein A (Pierce) was coupled to the chip surface using an amine coupling kit (GE Healthcare). Protein A was coupled on flow cell 1 and 2 (or alternatively 3 and 4) using a BIACORE® T200. […] The amount of supernatant or purified protein (as well as the concentration) injected during the capture stage varied between runs and is specified in the header of the Tables 3-11. At the end of injection of the supernatant or purified antibody the change in response units was measured. This value was reported as Capture Level in Tables 3-11. […] The response units were measured prior to the end of the dissociation phase. […] The sensorgrams were double referenced (flow cell 2 is subtracted from flow cell 1 and a buffer blank). As there were a large number of antibody variants to screen, these were screened across different runs (Tables 3-11). […] A summary of the conditions used in each run is below:
(§2) 2.1. […] In some experiment the antibodies were purified using Protein A chromatography (See 1.4) and purified antibodies were used in BIACORE® (GE Healthcare) experiments.

[2] = target: T1, human TL1A extracellular domain with …; assay: SPR run 3; supernatant on Protein A; TL1A 10 ug/mL; timepoint 590
From the text: as §1, §2

[3] = target: T2, human TL1A extracellular domain with …; assay: SPR Run 7, antibody on Protein A, TL1A 5 ug/mL, timepoint 220
Outline: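 Biacore T200 SPR with antibody (supernatant or Protein A-purified) captured on Protein A amine-coupled to a CM5 chip; capture level recorded as response change at end of capture.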

[4] = target: T2, human TL1A extracellular domain with …; assay: cell-based or functional assay
[5] = target: T2, human TL1A extracellular domain with …; assay: SPR Run 7, antibody on Protein A, TL1A 5 ug/mL, timepoint 44
Outline: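 The capture level was the response change at the end of loading, which varied by run. Antigen response was read before dissociation ended, double-referenced against a reference flow cell and a buffer blank.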

Row | Binder | TL1A Binding Level (Early) [1] [RU] | TL1A Binding Level (Late) [2] [RU] | also measured
1 | B1 | 30 | 10 | 
2 | B2 | 83 | 18 | 
3 | B3 | 194 | 179 | 
4 | B4 | 182 | 165 | 
5 | B5 | 86 | 29 | 
6 | B6 | 209 | 190 | 
7 | B7 | 199 | 184 | 
8 | B8 | 168 | 69 | 
9 | B9 | 218 | 192 | 
10 | B10 | 28 | 7 | 
11 | B11 | 126 | 93 | 
12 | B12 | 106 | 30 | 
13 | B13 | 44 | 10 | 
14 | B14 | 244 | 215 | 
15 | B15 | 144 | 128 | 
16 | B16 | 22 | 6 | 

Row | Binder | TL1A Binding Level (Early) [1] [RU] | TL1A Binding Level (Late) [2] [RU] | also measured
17 | B17 | 75 | 16 | 
18 | B18 | 111 | 94 | 
19 | B19 | 104 | 86 | 
20 | B20 | 79 | 61 | 
21 | B21 | 109 | 94 | 
22 | B22 | 118 | 104 | 
23 | B23 | 114 | 100 | 
24 | B24 | 51 | 13 | 
25 | B25 | 71 | 32 | 
26 | B26 | 103 | 82 | 
27 | B27 | 34 | 10 | 
28 | B28 | 147 | 133 | 
29 | B29 | 106 | 73 | 
30 | B30 | 47 | 40 | 
31 | B31 | 70 | 62 | 
32 | B32 |  |  | TL1A Binding Level (Late) [3]: 75 RU; Antibody IC50, TL1A induced caspase potency assay in TF-1 cells [4]: 4 ng/mL; Fold improvement over 320-179, TL1A induced caspase potency assay in TF-1 cells [4]: 10 fold; TL1A Binding Level (Early) [5]: 77 RU

Reference: US20170081400A1 (CEPHALON, published 2017)
